# In IntAct's records for PubMed 23532844:
# B1: Jouberin (Homo sapiens), Q8N157 (parent)
# chain: MPTAESEAKVKTKVRFEELLKTHSDLMREKKKLKKKLVRSEENISPDTIRSNLHYMKETTSDDPDTIRSNLPHIKETTSDDVSAANTNNLKKSTRVTKNKLRNTQLATENPNGDASVEEDKQGKPNKKVIKTVPQLTTQDLKPETPENKVDSTHQKTHTKPQPGVDHQKSEKANEGREETDLEEDEELMQAYQCHVTEEMAKEIKRKIRKKLKEQLTYFPSDTLFHDDKLSSEKRKKKKEVPVFSKAETSTLTISGDTVEGEQKKESSVRSVSSDSHQDDEISSMEQSTEDSMQDDTKPKPKKTKKKTKAVADNNEDVDGDGVHEITSRDSPVYPKCLLDDDLVLGVYIHRTDRLKSDFMISHPMVKIHVVDEHTGQYVKKDDSGRPVSSYYEKENVDYILPIMTQPYDFKQLKSRLPEWEEQIVFNENFPYLLRGSDESPKVILFFEILDFLSVDEIKNNSEVQNQECGFRKIAWAFLKLLGANGNANINSKLRLQLYYPPTKPRSPLSVVEAFEWWSKCPRNHYPSTLYVTVRGLKVPDCIKPSYRSMMALQEEKGKPVHCERHHESSSVDTEPGLEESKEVIKWKRLPGQACRIPNKHLFSLNAGERGCFCLDFSHNGRILAAACASRDGYPIILYEIPSGRFMRELCGHLNIIYDLSWSKDDHYILTSSSDGTARIWKNEINNTNTFRVLPHPSFVYTAKFHPAVRELVVTGCYDSMIRIWKVEMREDSAILVRQFDVHKSFINSLCFDTEGHHMYSGDCTGVIVVWNTYVKINDLEHSVHHWTINKEIKETEFKGIPISYLEIHPNGKRLLIHTKDSTLRIMDLRILVARKFVGAANYREKIHSTLTPCGTFLFAGSEDGIVYVWNPETGEQVAMYSDLPFKSPIRDISYHPFENMVAFCAFGQNEPILLYIYDFHVAQQEAEMFKRYNGTFPLPGIHQSQDALCTCPKLPHQGSFQIDEFVHTESSSTKMQLVKQRLETVTEVIRSCAAKVNKNLSFTSPPAVSSQQSKLKQSNMLTAQEILHQFGFTQTGIISIERKPCNHQVDTAPTVVALYDYTANRSDELTIHRGDIIRVFFKDNEDWWYGSIGKGQEGYFPANHVASETLYQELPPEIKERSPPLSPEEKTKIEKSPAPQKQSINKNKSQDFRLGSESMTHSEMRKEQSHEDQGHIMDTRMRKNKQAGRKVTLIE
# partner: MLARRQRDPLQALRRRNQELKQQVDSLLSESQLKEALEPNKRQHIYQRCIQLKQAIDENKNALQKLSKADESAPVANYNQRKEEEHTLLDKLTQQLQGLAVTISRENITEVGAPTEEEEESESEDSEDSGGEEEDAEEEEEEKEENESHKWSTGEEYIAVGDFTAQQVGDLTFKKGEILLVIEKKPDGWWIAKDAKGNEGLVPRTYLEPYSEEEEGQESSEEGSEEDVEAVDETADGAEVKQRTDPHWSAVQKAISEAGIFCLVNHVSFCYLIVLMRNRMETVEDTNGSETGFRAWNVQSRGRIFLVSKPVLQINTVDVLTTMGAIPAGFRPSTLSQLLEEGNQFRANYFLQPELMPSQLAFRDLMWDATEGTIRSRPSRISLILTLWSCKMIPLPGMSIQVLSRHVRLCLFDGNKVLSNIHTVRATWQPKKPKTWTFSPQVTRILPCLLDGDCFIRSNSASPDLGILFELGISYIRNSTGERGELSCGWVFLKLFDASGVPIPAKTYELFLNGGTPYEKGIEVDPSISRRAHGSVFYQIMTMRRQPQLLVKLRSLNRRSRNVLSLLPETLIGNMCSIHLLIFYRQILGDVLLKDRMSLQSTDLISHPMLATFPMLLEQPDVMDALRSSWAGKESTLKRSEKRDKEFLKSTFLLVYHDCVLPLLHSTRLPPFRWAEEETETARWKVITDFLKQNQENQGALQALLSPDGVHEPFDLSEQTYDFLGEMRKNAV
# B2: Jouberin (Homo sapiens), Q8N157 (parent)
# chain: B1 chain
# Variants of: B1
# Conditions: with nphp1_human NPHP1, O15259
row,Variant,effect of a mutation on the interaction
1,V443D,disrupting interaction

# Variants of: B2
# Conditions: with hap1_human HAP1, P54257
# Sequence of hap1_human HAP1, P54257 (P54257 whole entry): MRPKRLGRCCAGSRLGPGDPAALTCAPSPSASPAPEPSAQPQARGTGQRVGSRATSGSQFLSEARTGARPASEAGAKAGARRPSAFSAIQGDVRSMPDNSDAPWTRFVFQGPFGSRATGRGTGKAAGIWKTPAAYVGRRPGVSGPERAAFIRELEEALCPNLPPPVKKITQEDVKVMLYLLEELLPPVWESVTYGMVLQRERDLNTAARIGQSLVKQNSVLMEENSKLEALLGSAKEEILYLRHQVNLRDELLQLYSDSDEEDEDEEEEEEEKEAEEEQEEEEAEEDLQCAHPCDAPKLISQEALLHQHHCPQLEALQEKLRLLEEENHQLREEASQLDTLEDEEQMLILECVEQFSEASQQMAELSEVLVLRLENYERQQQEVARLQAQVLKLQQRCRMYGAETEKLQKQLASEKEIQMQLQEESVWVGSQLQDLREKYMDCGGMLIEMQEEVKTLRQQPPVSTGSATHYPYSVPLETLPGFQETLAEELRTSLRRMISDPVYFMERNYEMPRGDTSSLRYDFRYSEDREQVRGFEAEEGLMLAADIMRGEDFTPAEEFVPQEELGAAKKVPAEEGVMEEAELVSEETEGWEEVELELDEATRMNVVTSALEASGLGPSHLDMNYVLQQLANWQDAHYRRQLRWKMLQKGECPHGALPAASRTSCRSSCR
row,Variant,effect of a mutation on the interaction
1,V443D,decreasing interaction
